B1: ch75-mc0131 (Notch3-75-cG1-(C)_mc-0#118) (antibody, V domains shown)
VH: QVKLLQSGAALVKPGASVKMSCKASGYAFTDYWVTWVKQSHGKSLEWIGEISPNSGGTNFNEKFKGKATLTVDKSTSTAYMELSRLTSEDSAIYYCTRGEIRYNWFAYWGQGTLVTVSS
VL: DIQMTQSPSSLSASVGDRVTITCKASQNVGNNIAWYQQKPGKAPKLLIYYASNRYTGVPSRFSGSGYGTDFTLTISSLQPEDFATYYCQRLYNSPFTFGGGTKVEIK
B2: ch75-vc6780 (Notch3-75-cG1-(C)_mcValCitPABC-#112) (antibody, V domains shown)
VH: B1 VH
VL: B1 VL
B3: ch75-mc3377 (Notch3-75-cG1-(C)_mc-#115) (antibody, V domains shown)
VH: B1 VH
VL: B1 VL
B4: ch75-me0131 (Notch3-75-cG1-(C)_me-0#118) (antibody, V domains shown)
VH: B1 VH
VL: B1 VL
B5: ch28-me0131 (Notch3-28-cG1-(C)_me-0#118) (antibody, V domains shown)
VH: EVQLVESGGGLVQPGRSLTLSCVASGFTFRDYGMTWIRQAPGKGLTWVAYISSGSNYIYYAEAVKGRFTISRDNAKNTLYLQMTSLRSEDTALYFCTRRGPFVLDAWGQGASVTVSS
VL: DIQMTQSPSFLSASVGDRVTINCKASQSINRYLHWFQQKLGEAPKLLIYNANGLQTGIPSRFSGSGSGTDFTLTISSLQSEDVATYFCLQHNTWPDTFGAGTKLELK
B6: ch28-vc0101 (Notch3-28-cG1-(C)_mcValCitPABC-#54) (antibody, V domains shown)
VH: B5 VH
VL: B5 VL

Target: full-length human Notch3 expressed on the cell surface (human, UniProt Q9UM47 40-2321)
Sequence (Q9UM47 40-2321): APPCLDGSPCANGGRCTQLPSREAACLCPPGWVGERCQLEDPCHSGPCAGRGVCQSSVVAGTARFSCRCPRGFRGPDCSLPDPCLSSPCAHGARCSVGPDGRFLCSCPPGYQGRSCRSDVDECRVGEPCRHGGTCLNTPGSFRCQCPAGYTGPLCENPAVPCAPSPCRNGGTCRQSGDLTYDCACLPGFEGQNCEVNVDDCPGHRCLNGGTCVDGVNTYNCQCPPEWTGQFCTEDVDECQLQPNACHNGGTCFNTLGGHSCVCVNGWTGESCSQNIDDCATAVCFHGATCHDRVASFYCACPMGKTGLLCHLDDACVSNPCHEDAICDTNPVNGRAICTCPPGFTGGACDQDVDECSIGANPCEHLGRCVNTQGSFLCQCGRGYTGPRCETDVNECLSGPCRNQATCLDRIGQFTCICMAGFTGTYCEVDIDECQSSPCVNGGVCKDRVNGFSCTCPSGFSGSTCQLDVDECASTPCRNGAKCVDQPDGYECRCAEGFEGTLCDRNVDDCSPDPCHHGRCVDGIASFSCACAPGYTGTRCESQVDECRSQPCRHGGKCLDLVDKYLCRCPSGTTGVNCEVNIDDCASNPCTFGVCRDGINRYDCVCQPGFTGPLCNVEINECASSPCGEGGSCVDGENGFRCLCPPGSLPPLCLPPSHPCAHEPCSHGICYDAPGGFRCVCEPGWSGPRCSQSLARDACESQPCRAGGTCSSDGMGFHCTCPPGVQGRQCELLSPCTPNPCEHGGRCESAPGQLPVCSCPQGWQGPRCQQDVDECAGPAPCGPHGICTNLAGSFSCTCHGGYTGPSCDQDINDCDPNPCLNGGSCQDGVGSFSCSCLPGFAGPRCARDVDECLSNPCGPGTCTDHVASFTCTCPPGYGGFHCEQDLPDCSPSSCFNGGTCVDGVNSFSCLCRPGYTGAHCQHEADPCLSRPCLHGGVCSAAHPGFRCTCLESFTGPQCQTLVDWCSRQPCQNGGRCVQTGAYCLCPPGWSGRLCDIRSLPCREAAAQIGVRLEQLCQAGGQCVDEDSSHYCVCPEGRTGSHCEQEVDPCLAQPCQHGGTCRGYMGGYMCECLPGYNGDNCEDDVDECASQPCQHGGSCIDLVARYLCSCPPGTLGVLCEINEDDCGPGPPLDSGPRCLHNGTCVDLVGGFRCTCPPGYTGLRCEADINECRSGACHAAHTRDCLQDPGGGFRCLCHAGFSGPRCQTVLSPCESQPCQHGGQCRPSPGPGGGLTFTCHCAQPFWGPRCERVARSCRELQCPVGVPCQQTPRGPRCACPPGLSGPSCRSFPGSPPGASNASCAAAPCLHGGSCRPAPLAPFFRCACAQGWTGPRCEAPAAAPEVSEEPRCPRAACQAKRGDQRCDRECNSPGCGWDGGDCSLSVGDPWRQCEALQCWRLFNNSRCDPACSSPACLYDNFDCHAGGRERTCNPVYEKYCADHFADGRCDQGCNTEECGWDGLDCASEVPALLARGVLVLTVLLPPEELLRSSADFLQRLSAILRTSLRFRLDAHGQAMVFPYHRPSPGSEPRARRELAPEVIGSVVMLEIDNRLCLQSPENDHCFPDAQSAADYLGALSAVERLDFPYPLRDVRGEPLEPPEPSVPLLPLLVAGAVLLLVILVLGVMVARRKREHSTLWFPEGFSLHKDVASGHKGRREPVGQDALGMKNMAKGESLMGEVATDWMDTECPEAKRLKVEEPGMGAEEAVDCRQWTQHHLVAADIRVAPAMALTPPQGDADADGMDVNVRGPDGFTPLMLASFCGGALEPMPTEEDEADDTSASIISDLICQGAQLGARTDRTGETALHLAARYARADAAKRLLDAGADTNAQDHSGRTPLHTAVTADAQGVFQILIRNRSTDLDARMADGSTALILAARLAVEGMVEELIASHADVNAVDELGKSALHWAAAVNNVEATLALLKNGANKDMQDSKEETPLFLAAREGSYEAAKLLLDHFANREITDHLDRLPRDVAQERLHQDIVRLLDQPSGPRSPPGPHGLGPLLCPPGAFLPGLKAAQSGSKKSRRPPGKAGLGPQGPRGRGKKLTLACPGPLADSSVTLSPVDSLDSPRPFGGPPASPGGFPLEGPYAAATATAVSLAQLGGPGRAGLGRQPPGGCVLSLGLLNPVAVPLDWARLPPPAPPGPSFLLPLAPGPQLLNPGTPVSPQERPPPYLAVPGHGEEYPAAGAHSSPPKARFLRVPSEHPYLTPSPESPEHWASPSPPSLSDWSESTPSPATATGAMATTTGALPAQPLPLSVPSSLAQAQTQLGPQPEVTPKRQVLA
Assay: cell-based or functional assay

Binder	IC50 of cytotoxicity (MTS viability), OVCAR3 cells [ng Ab/mL]	IC50 of cytotoxicity (MTS viability), MDA-MB-468 cells [ng Ab/mL]	further results
B1	289	–	IC50 of cytotoxicity (MTS viability), U2OS/hNotch3 cells: 19 ng Ab/mL
B2	922	–	–
B3	–	560	–
B4	–	259	–
B5	–	–	IC50 of cytotoxicity (MTS viability), HCC2429 cells: 30 ng Ab/mL
B6	635	–	–
